In article PMC12343972 (Nature Communications, 2025):

How the values were obtained:
[1] = biological target: T1, Rad50-K60A (Saccharomyces cerevisiae, UniProt P12753 1-1312, K60A); assay: EMSA
T1 sequence: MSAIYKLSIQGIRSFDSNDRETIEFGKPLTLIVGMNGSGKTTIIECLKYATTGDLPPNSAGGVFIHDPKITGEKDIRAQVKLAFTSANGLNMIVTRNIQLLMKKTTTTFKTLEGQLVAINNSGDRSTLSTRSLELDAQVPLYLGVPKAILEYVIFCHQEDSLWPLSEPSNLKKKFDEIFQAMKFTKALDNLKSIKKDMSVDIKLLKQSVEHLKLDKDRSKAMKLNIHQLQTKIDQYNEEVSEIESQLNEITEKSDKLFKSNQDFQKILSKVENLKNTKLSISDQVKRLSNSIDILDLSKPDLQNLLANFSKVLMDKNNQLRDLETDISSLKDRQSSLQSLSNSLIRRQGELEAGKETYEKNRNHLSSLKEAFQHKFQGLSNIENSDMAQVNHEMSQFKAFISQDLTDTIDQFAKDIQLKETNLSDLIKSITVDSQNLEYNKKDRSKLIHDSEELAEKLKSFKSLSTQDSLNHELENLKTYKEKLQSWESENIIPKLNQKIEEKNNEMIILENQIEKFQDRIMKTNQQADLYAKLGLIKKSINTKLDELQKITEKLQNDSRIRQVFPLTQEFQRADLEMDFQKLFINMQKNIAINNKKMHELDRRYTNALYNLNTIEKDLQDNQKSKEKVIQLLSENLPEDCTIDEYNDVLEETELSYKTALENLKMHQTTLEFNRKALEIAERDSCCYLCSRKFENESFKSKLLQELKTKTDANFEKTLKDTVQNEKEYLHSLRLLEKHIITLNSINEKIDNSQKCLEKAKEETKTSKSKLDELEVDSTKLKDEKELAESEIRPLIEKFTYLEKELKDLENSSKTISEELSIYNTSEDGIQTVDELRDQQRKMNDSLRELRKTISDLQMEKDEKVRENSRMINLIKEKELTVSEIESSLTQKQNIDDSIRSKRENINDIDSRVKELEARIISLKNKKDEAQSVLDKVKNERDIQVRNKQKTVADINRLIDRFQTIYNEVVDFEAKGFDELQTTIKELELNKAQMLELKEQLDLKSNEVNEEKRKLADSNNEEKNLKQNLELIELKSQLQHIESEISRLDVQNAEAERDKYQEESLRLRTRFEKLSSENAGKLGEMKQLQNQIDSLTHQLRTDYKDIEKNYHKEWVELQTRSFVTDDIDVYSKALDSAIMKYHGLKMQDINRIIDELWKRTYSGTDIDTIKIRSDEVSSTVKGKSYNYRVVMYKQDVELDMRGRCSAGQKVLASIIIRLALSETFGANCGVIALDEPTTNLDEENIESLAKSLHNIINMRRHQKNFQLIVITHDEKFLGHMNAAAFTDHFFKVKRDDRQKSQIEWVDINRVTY

[2] = biological target: T2, Rad50-R131A (Saccharomyces cerevisiae, UniProt P12753 1-1312, R131A); assay: EMSA
T2 sequence: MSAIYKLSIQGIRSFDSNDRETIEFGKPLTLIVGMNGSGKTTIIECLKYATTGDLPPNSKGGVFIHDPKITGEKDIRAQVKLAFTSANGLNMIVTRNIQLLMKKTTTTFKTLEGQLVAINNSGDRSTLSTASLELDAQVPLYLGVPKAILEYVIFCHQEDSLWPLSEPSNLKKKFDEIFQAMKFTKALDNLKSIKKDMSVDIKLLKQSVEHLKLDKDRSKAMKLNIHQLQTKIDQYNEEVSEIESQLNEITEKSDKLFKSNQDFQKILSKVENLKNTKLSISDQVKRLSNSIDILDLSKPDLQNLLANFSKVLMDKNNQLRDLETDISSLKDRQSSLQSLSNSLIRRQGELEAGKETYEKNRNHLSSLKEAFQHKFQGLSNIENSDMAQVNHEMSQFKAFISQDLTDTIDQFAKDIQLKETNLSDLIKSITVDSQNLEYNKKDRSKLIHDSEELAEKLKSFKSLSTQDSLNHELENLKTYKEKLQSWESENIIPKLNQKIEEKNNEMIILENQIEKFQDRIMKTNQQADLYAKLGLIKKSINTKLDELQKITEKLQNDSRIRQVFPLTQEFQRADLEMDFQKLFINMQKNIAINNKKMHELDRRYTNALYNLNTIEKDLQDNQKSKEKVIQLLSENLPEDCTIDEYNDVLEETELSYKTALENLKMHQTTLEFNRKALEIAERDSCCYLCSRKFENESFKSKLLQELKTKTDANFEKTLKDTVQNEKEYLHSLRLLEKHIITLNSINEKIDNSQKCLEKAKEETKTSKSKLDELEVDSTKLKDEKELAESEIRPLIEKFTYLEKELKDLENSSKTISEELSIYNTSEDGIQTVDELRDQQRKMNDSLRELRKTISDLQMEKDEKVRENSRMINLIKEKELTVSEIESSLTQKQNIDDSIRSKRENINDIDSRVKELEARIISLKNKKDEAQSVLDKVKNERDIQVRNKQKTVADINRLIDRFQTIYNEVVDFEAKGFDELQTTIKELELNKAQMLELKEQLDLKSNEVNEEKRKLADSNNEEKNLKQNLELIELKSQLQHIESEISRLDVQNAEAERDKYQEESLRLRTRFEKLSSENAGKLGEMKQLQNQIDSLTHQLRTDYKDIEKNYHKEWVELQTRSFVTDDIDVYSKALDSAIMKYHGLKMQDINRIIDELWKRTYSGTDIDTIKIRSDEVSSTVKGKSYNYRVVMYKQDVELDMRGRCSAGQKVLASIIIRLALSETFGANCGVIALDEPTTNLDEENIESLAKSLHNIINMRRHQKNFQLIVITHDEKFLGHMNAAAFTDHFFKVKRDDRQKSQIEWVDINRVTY

B1: 83-mer dsDNA (EMSA) (dsDNA)
DNA 1: TTGATAAGAGGTCATTTTTGCGGATGGCTTAGAGCTTAATTGCTGAATCTGGTGCTGTAGCTCAACATGTTTTAAATATGCAA
DNA 2: TTGCATATTTAAAACATGTTGAGCTACAGCACCAGATTCAGCAATTAAGCTCTAAGCCATCCGCAAAAATGACCTCTTATCAA
B1: binds [1]; binds [2].
